Source: PMC2706996

Target: T1, rSsp2 SM101 (Clostridium perfringens SM101 (type A), UniProt P21886 1-59)
T1 sequence: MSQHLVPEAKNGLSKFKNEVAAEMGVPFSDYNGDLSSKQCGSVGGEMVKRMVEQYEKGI
Assay: EMSA; glutaraldehyde-fixed; preferred probe
Details: protein: recombinant; tags: His6; label: 3'-biotin; blunt

B1: GC-rich probe (69.1% GC), Label-D2/Label-R2 (dsDNA)
DNA 1: CTGGCGACTCAGAAGGGGCTCGAACCCTCGACCTCCGGCGTGACAGGCCGGCACT
DNA 2: AGTGCCGGCCTGTCACGCCGGAGGTCGAGGGTTCGAGCCCCTTCTGAGTCGCCAG
  binding result: binds
